Measurements from patent US20220332804A1 (CSL INNOVATION, published 2022).
Where a chain is given by its changes, count along the chain named.

What was measured:
Assay in all cases: SPR, mAb captured, C2 mutant analyte;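 also: Anti-C2 mAbs captured on goat anti-human IgG Biacore CM5 chips, alanine or serine C2 surface mutants flowed over at 37 °C, double-referenced sensorgrams fitted to a 1:1 binding model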
human C2 G432A = molecular target: T1, human C2 G432A (human, UniProt P06681 21-752)
T1 sequence: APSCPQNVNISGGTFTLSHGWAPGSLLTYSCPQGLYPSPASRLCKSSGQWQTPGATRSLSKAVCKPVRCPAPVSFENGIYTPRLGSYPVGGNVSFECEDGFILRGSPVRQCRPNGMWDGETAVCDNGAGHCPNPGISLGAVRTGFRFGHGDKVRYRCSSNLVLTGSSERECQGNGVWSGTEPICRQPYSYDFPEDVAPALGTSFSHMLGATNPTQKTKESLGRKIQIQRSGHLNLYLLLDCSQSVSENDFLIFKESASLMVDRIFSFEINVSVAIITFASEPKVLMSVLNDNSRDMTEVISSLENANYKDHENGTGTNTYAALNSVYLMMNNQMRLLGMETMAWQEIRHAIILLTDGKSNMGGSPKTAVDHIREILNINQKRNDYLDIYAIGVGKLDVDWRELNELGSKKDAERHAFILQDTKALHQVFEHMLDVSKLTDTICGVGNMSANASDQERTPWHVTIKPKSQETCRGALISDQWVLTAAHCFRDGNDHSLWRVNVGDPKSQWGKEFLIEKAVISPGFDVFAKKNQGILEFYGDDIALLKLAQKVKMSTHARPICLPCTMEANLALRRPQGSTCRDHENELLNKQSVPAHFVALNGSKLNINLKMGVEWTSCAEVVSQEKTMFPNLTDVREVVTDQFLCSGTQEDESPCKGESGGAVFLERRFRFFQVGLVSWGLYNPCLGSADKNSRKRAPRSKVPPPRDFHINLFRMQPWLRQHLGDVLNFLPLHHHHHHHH

human C2 N424A = molecular target: T2, human C2 N424A (human, UniProt P06681 21-752)
T2 sequence: T1 sequence with N404A, A412G

human C2 S469A = molecular target: T3, human C2 S469A (human, UniProt P06681 21-752)
T3 sequence: T1 sequence with A412G, S449A

human C2 L453A = molecular target: T4, human C2 L453A (human, UniProt P06681 21-752)
T4 sequence: T1 sequence with A412G, L433A

Kd (human C2 G432A): 26 nM
Kd (human C2 N424A): 16.1 nM
Kd (human C2 S469A): 106 nM
Kd (human C2 L453A): 1410 nM
B1: RF16-214 (antibody, V domains shown)
VH: EVQLLESGGGLVQPGGSLRLSCAASGFTFSWYQMMWVRQAPGKGLEWVSRIYPSGGGTAYADSVKGRFTISRDNSKNTLYLQMNSLRAEDTAVYYCARDAGYGDNWGQGTLVTVSS
VL: QSALTQPPSVSVSPGQTASITCSGDKLGEKYASWYQQKAGQSPVMVIYQDRKRPSGIPERFSGSNSGNTATLTISGTQAMDEADYYCQAWDTRAVVFGGGTKLTVLG
